The text below walks through data of patent US20140045756A1 (NEW YORK UNIVERSITY, published 2014).

B1: PGRN granulin unit C (yeast two-hybrid construct) (peptide)
chain: VPCDNVSSCPSSDTCCQLTSGEWGCCPIPEAVCCSDHQHCCPQGYTCVAEGQCQ
notes: also called granulin C
B2: PGRN granulin unit A (yeast two-hybrid construct) (peptide)
chain: DVKCDMEVSCPDGYTCCRLQSGAWGCCPFTQAVCCEDHIHCCPAGFTCDTQKGTCE
notes: also called granulin A
B3: PGRN granulin unit F (yeast two-hybrid construct) (peptide)
chain: AIQCPDSQFECPDFSTCCVMVDGSWGCCPMPQASCCEDRVHCCPHGAFCDLVHTRCI
notes: also called granulin F

The experiment concerns the target T1, TNFR2 (TNFRSF1B/CD120b), yeast two-hybrid construct (mouse (clone from a murine embryonic …, UniProt P25119 23-258)).
T1 construct: one molecule is used for all Y2H assays; also called cell surface TNFR2
T1 sequence (looked up): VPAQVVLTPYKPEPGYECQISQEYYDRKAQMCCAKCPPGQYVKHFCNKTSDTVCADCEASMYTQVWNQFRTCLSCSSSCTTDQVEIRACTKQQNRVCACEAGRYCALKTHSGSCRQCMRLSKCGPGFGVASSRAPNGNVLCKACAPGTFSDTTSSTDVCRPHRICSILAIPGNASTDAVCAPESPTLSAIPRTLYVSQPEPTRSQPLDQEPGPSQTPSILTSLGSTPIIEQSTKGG
The experiment can be described thus: yeast two-hybrid, β-galactosidase assay.
Description: Assay of protein-protein interactions using the Y2H system. Independent yeast colonies were analyzed for the interaction of two proteins, one of which was fused to the Ga14 DNA binding domain and the other, to the VP16 transactivation domain. Previously published procedures were followed for 1) growing and transforming the yeast strain MAV203 with the selected plasmids; and 2) determining β-galactosidase activity and growth phenotypes on selective media lacking tryptophan, leucine, histidine, and uracil.
As for LSKENATTDLLTKLPAHTVGD [PGRN linker region P4 (yeast two-hybrid construct)], the binding result is recorded as “no binding”.

With B1, the binding result is “no binding”.

For the molecule B2, the binding result was “no binding”.

For B3, the binding result is recorded as “no binding”.

With EQGPHQVPWMEKAPAHLSLPDPQALKRDV [PGRN linker region P5 (yeast two-hybrid construct)], the binding result is reported as “no binding”.

Consider ITPTGTHPLAKKLPAQRTNRAVALSSS [PGRN linker region P3 (yeast two-hybrid construct)], for which the binding result is recorded as “no binding”.
